From patent publication US9897611B2, “Molecule library constructed on the basis of backbone structure of microprotein” (NATIONAL INSTITUTE OF ADVANCED INDUSTRIAL SCIENCE AND …, priority 2012, dated 2018)
Read-outs that look alike come from different tables or passages of the source. Blank lines part the entries; values can stand above or below the substance they belong to. Ends that are not written are not given here.

Columns and labels:
human IgG Fc region = target: T1, human IgG Fc region (Homo sapiens, UniProt P01857); assay: SPR binding affinity analysis on immobilized Fc region prepared by papain digestion of human monoclonal IgG
T1 construct: The Fc region was prepared by the papain digestion of a human monoclonal antibody IgG
Method: The Fc region was prepared by the papain digestion of a human monoclonal antibody IgG (Chugai Pharmaceutical Co., Ltd.) according to the instruction manual attached to Pierce® Fab Preparation Kit (Thermo Fisher Scientific Inc. Pierce) followed by purification by affinity chromatography using MabSelect SuRe (GE Healthcare Japan Corp.), HiTrap DEAE anion-exchange chromatography (GE Healthcare Japan Corp.), and gel filtration chromatography using Superdex 200 (GE Healthcare Japan Corp.).
The Fc region prepared in the section 1) of Example 2 was immobilized onto a sensor chip CM5 (GE Healthcare Japan Corp.) by the amine coupling method.
Subsequently, an example of binding affinity analysis by the surface plasmon resonance method is shown as to the functions of the thioredoxin fusion proteins with the prepared polypeptides. The analysis apparatus used was Biacore T100 (GE Healthcare Japan Corp.). […] The data was processed with Biacore T100 Evaluation Software (GE Healthcare Japan Corp.).
The assay employed Biacore T100 (GE Healthcare Japan Corp.).
Subsequently, the prepared 5 types of polypeptides were analyzed for their binding affinity by surface plasmon resonance. The assay employed Biacore T100 (GE Healthcare Japan Corp.).

[1] = system: human Fc region manufactured by Jackson ImmunoResearch Laboratories, Inc.; assay: SPR binding affinity analysis, peptide as analyte on immobilized human Fc region (Jackson ImmunoResearch)
From the text: A human Fc region manufactured by Jackson ImmunoResearch Laboratories, Inc. was immobilized onto a sensor chip CM5 (GE Healthcare Japan Corp.) by the amine coupling method using Amine Coupling Kit (GE Healthcare Japan Corp.).

[2] = analyte on Fc region immobilized on CM5, HBS-T, 25° C., read-out: equilibrium dissociation constant KD
[3] = alanine variants of p17_2, Fc region immobilized on CM5, read-out: KD (nM), binding dissociation constant of p17_2 variant

Kd (human IgG Fc region; Fc region immobilized on CM5, 0.78-100 μM peptide, read-out: equilibrium dissociation constant KD by Scatchard plot using equilibrium value): 42000 nM
Substance: DAAWHLGELVWAT [FcIII-Ala peptide, reference compound]

improvement in affinity compared with FcIII-Ala peptide (human IgG Fc region): approximately 420 fold
Substance: DAAWHLGELVWATYYDPETGTWLPDWQTMAQK [pep21 peptide]

Substance: DAAWHLGELVWATYYDPETGTWQPDWLYMTTR [pep14 peptide]
Kd (human IgG Fc region; [2]): 120 nM

binding affinity relative to that of the 2A1 peptide ([1]; chignolin variant region replaced with glycine-rich linker): 1/1000
Kd ([1]; peptide analyte, Fc immobilized on sensor chip CM5, HBS-T pH 7.4, 25° C., read-out: equilibrium dissociation constant KD): 23000 nM
Substance: GVVRQWSGGGGSGGGGRSSIAYGGG [2A1Gly peptide, 2A1 peptide with the chignolin variant region replaced by a glycine-rich linker]

improvement in affinity compared with FcIII-Ala peptide (human IgG Fc region): approximately 26000 fold
improvement in binding affinity compared with pep24 peptide (human IgG Fc region): 138 fold
Kd (human IgG Fc region; [2]): 1.6 nM
Substance: p17_2: SEQ ID NO: 47; 54 residues, p17 with Gly, Pro, Gly at the N terminus, from protease cleavage of thioredoxin fusion (GPGISAFSPGRGVYDPETGTWYDAAWHLGELVWATYYDPETGTWEPDWQRMLGQ; Selected sequence, p17_2)

Kd (human IgG Fc region; [3]): 45 nM
Substance: p17_D47A: alanine variant of p17_2 polypeptide, SEQ ID NO: 61 (GPGISAFSPGRGVYDPETGTWYDAAWHLGELVWATYYDPETGTWEPAWQRMLGQ; Selected sequence, p17_D47A)

Kd (human IgG Fc region; [3]): 5.6 nM
Substance: p17_P46A: alanine variant of p17_2 polypeptide, SEQ ID NO: 60 (GPGISAFSPGRGVYDPETGTWYDAAWHLGELVWATYYDPETGTWEADWQRMLGQ; Selected sequence, p17_P46A)

Kd (human IgG Fc region; [3]): 7.8 nM
Substance: p17_R50A: alanine variant of p17_2 polypeptide, SEQ ID NO: 63 (GPGISAFSPGRGVYDPETGTWYDAAWHLGELVWATYYDPETGTWEPDWQAMLGQ; Selected sequence, p17_R50A)

Kd (human IgG Fc region; [3]): 200 nM
Substance: p17_W48A: alanine variant of p17_2 polypeptide, SEQ ID NO: 62 (GPGISAFSPGRGVYDPETGTWYDAAWHLGELVWATYYDPETGTWEPDAQRMLGQ; Selected sequence, p17_W48A)
